Here are results for 1 molecule from article doi:10.1101/2021.03.15.435440 (bioRxiv, 2021).

This experiment has as its target SARS-CoV-2 spike (6P) (SARS-CoV-2, Wuhan-Hu-1 reference, UniProt P0DTC2, stabilised). Briefly: cryo-EM structure.

B1: Ab16 Fab (Fab, V domains shown)
VH: EVQLQQSGPELVKPGASVKISCKASGYSFNNYYMNWVKQSPEKSLEWIGEINPNSGYTSYNQKFRAKATLTVDKSSTTAYMQLKSLTSEDSAVYYCARYFGNLFAMDFWGQGTSVTVS
VL: DILMTQSPSSMSVSLGDTVSITCHASQGIGSNIGWLQQKPGKSFKGLIYLGTNLEDGVPSRFSGSGSGADYSLTISSLESEDFADYYCVQYVQFPYTFGGGTKLEIK
Take B1: the binding result is “binds”.
